Data published in patent publication US20150259666A1.

Key:
[1] = biological target: fibrin (clot prepared from fibrinogen with bovine thrombin); assay: fibrin clot binding assay, 0.3 mg/ml fibrinogen; bound enzyme = total minus free in supernatant by ELISA
[2] = biological target: fibrin (clot prepared from fibrinogen with bovine thrombin); assay: fibrin clot binding assay, 0.1 mg/ml fibrinogen; bound enzyme = total minus free in supernatant by ELISA
[3] = biological target: fibrin (clot prepared from fibrinogen with bovine thrombin); assay: fibrin clot binding assay; ratio of CT-b to full-length t-PA

Row | Substance | percent fibrin binding [1] | percent fibrin binding [2] | fold fibrin binding against full-length t-PA [3]
1 | chimeric truncated tissue plasminogen activator (CT t-PA) or CT-b (from UniProt P98119 37-82; P00750 82-214; P00750 297-562) (enzyme) | 60% | 28% | 1.2 fold
2 | full length t-PA (native human tissue plasminogen activator) (from UniProt P00750 36-562) (enzyme) | 51% | 24% | 
